Assay results published in article PMC5758891.

Molecular target: T1, Lhr-(1-856) (UniProt A0QT91 1-856)
T1 sequence: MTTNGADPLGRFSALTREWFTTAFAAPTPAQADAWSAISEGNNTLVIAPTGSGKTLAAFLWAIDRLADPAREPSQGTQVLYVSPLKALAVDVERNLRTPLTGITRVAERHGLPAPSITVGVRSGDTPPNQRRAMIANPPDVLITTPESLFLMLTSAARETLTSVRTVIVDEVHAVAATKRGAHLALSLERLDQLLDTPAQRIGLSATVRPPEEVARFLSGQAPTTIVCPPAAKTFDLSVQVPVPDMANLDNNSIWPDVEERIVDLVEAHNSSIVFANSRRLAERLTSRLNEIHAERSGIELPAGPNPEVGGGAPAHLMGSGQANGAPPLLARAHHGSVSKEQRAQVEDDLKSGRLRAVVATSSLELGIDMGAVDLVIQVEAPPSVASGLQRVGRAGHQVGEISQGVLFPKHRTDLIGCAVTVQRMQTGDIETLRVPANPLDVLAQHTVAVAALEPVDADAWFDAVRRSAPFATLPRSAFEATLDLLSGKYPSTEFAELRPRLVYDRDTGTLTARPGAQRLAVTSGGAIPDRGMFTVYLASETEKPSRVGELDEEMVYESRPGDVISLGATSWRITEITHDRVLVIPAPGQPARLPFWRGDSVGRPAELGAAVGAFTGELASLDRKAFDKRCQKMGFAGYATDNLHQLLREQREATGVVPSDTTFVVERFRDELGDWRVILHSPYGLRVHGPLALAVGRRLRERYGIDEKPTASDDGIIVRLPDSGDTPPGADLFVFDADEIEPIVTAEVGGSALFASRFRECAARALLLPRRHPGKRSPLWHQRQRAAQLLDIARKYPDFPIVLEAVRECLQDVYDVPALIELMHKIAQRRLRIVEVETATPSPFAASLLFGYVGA
Test: X-ray crystallography

B1: 16-mer ssDNA (ssDNA)
DNA: GACCTGCTGCGGATTG
binding result: binds
